# Experiment: yeast display, Sf9 membrane polyspecificity reagent, FACS + sequencing; frameworks hold sequencing errors
# Summary of the method: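 A synthetic nanobody library was expressed on Saccharomyces cerevisiae BJ5465 by galactose induction for 36–48 hours. The library was stained for 1 hour at 4 °C with 10% biotinylated, detergent-solubilized Sf9 membrane reagent and enriched with streptavidin microbeads before FACS. Low and high (top ~1%) gates were set on anti-HA fluorescence for expression and streptavidin fluorescence for reagent binding, and each polyreactivity label reflects the gate of origin.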
row,Sequence,polyreactivity (PSR sort gate)
1,QVQLVESGGGLVQAGGSLRLSCAASGRTFLWNDMGWYRQAPGKERELVAAITGSDGTYADSVKGRFTISRDNAKNTVYLQMNSLKPEDTAVYYCAAVYSYQNEGYDYWGQGTQVTVSS,low polyreactivity
2,QVQLVESGGGLVQAGGSLRLSCAASGRTFLYNAMGWYRQAPGKERELVATITWSDDGTYYADSVKGRFTISRDNAKNTVYLQMNSLKPEDTAVYYCAAVYPRTRVKMDYWGQGTQVTVSS,low polyreactivity
3,QVQLVESGGGLVQAGGSLRLSCAASGRTFLYYAMGWFRQAPGKERELVAAISASGGSTYYADSVKGRFTISRDNAKNTVYLQMNSLKPEETAVYSCARYTGWGSRYDYWGQGTQVTVSS,high polyreactivity
4,QVQLVESGGGLVQAGGSLRLSCAASGRTFLYYAMGWYRQAPGKERELVAAISTGSSTYYADSVKGRFTISRDNAKNTVYLQMNSLKPEDTAVYYCAAGSIVGYPGFSTDDYWGQGTQVTVSS,low polyreactivity
5,QVQLVESGGGLVQAGGSLRLSCAASGRTFLYYTMGWYRQAPGKERELVAVISIEGGGTYADSVKGRFTISRDNAKNTVYLQMNSLKPEDTAVYYCAVDALSITYGYWGQGTQVNVSS,low polyreactivity
6,QVQLVESGGGLVQAGGSLRLSCAASGRTFNFYSMGCYRQAPRKERELVAAISHGDSTYYADSVKGRFTISRDNAKNTVYLQMNSLNPEDTAVYYCAASQKYYLRKYEYWGQGTQVTVSS,low polyreactivity
7,QVQLVESGGGLVQAGGSLRLSCAASGRTFNGYAMGWYRQAPGKERELVARITYRGGGTYYADSVKGRFTISRDNAKNTVYLQMNSLKPEDTAVYYCNARGVQYRYYYWGQGTQVTVSS,high polyreactivity
8,QVQLVESGGGLVQAGGSLRLSCAASGRTFNGYAMGWYRQAPGKERELVASISWSGGRTYYADSVKGRFTISRDNAKNTVYFQMNSLKPEDTAVYYCAATFVNVVGYDYWGQGTQVTVST,high polyreactivity
9,QVQLVESGGGLVQAGGSLRLSCAASGRTFNKNSMGWYRQAPGKERELVAAITTGGGTYYADSVKGRFTISRDNAKNTVYLQMNSLKPEDTAVYYCAARRRRWSGYWGQGTQVTVSS,high polyreactivity
10,QVQLVESGGGLVQAGGSLRLSCAASGRTFNKYAMGWYTQAPGKERELVAAISTRGGSTYYADSVKGRFTISRDNAKNTVDLQMNSLKPEDTAVYYCAARLTTVGQGFDYWGQGTQVTVSS,high polyreactivity
11,QVQLVESGGGLVQAGGSLRLSCAASGRTFNLYAMGWYRQAPGKEREFVAAISYSGDSTYYADSVKGRFTISRDNAKNTVYLQMNSLKPEDTAVYYCNADRLQVTRTYDYWGQGTQVTVSS,low polyreactivity
12,QVQLVESGGGLVQAGGSLRLSCAASGRTFNNNAMGWYRQAPGKERELVAAITSGGSTNYADSVKGRFTISRDNAKNTVYLQMNSLKPEDTAVYYCNAGYYSRRYYFSGRLDYWGQGTQVTVSS,low polyreactivity
13,QVQLVESGGGLVQAGGSLRLSCAASGRTFNPYVMGWYRQAPGKERELVAVITSSGDSTYYADSVKGRFTISRDNAKNTVYLQMNSLKPEDTAVYYCNADYLYYDYDYWGQGTQVTVSS,high polyreactivity
14,QVQLVESGGGLVQAGGSLRLSCAASGRTFNRNAMGWYRQAPAKERELVAAITSSGGRTYYADSVKGRFTISRDNAKNTVYLQMNSLKPEDTAVYYCNVGPYYPVYLGYLLWYDYWGQGTQVTVSS,high polyreactivity
15,QVQLVESGGGLVQAGGSLRLSCAASGRTFNRNAMGWYRQAPGKERELVAAISRGGGGTFYADSVKGRFTISRDNAKNTVYLQMNSLKPEDTAVYYCAAELYYWTYVRFDYWGQGTQVTVSS,low polyreactivity
16,QVQLVESGGGLVQAGGSLRLSCAASGRTFNRYAMGWYRQAPGKERELVAAINWSGGSTYYADSVKGRFTISRDNAKNTVYLQMNSLKPEDTAVYYCNAGLGKFPVKGGRRYRLDYWGQGTQVTVSS,low polyreactivity
17,QVQLVESGGGLVQAGGSLRLSCAASGRTFNRYAMGWYRQAPGKERELVAAISGGGSSTSYADSVKGRFTISRDNAKNTVYLQMNSLKPEDTAVYYCAAKYGALRYYNMYYWGQGTQVTVSS,low polyreactivity
18,QVQLVESGGGLVQAGGSLRLSCAASGRTFNRYVMGWYRQAPGNERELVAALTSSGRTNYADSVKGRFTLSRDNAKNTVYLQMNSLKPEDTAVYYCAKGLYRRYYRVWWLRGDYWGQGTQVTVSS,high polyreactivity
19,QVQLVESGGGLVQAGGSLRLSCAASGRTFNSYAMGWYRQAPGKERELVAAISRRGGSTYYADSVKGRFTISRDNAKNTVYLQMNSLKPEDTAVYYCASTIVQYISRMDYWGQGTQVTVSS,high polyreactivity
20,QVQLVESGGGLVQAGGSLRLSCAASGRTFNTNAMGWYRQAPGKERELVAAISRRSGSTYYADSVKGRFTISRDNAKNTVYLQMNSLKPEDTGVYYCARTAVRKYPYEYWGQGPQVTVSS,high polyreactivity
21,QVQLVESGGGLVQAGGSLRLSCAASGRTFNTYAMGWYRQAPGKERELVAAISKRGGSTYYADSVKGRFTISRDNAKNTVYLQMNSLKPEDTAVYYCNAKGNVRMYWGQGTQVTVSS,high polyreactivity
22,QVQLVESGGGLVQAGGSLRLSCAASGRTFNVNAMGWYRQAPGIERELVATISSAASTNYADSVKGRFTISRDNAKNTVYLQMNSLKPEDTAVYYCNAAFYKEYYYWGQGTQVTVSS,low polyreactivity

row,Sequence,polyreactivity (PSR sort gate)
1,QVQLVESGGGLVQAGGSLRLSCAASGRTFNYYAMAWYRQAPGKERELVAAISYSGGSTYYADSVKGRFTISRDNAKNTVYLQMNSLKPEDTAVYYCAVVIKWRSSYVYSYYYWGQGTQVTVSS,high polyreactivity
2,QVQLVESGGGLVQAGGSLRLSCAASGRTFNYYAMGWYRQAPGKERELVASIRYSTGSTYYADSVKGRFTISRDNAKNTVYLQMNSLKPEDTAVYYCAARRYARASRYDYWGQGTQVTVSS,high polyreactivity
3,QVQLVESGGGLVQAGGSLRLSCAASGRTFPAYAMGWYRQAPGKERELVAAISYSGGRTRYADSVKGRFTISRDNAKNTVYLQMNSLKPEDTAVYYCNRVIPTHSLRDYYWGQGSQVTVSS,high polyreactivity
4,QVQLVESGGGLVQAGGSLRLSCAASGRTFPAYTMGWYRPAPGKERELVAAIRWSGGRTRYADSVKGRFTISRDNAKNTVYLQMNSLKPEDTAVYYCAAYRLSKPFYKYDYWGQGTQVTVSS,high polyreactivity
5,QVQLVESGGGLVQAGGSLRLSCAASGRTFPAYTMGWYRQAPGKERELVAAINWSGGSTYYADSVKGRFTISRDNAKNTVYLQMNSLKPEDTAVYYCARTSRYYGFRSYGTLDYWGLGTQVTVSS,high polyreactivity
6,QVQLVESGGGLVQAGGSLRLSCAASGRTFPEYGMGWYRQAPGKEREFVAAISTRGGSTYYANSVKGRFTISRDNAKNTVYLQMNSLKPEDTAVYYCAKVYDRSGGDYWGQGTQVTVSS,low polyreactivity
7,QVQLVESGGGLVQAGGSLRLSCAASGRTFPFNAMGWYRQPPGKERELVAVINSGGSTYYADSVKGRFTISRDNAKNTVYLQMNSLKPEDTAVYYCYVKRYLWFTDLLYDYWGQGTQVTVSS,high polyreactivity
8,QVQLVESGGGLVQAGGSLRLSCAASGRTFPFYAMGWYRQAPGKERELVAAINSGGITNYADSVKGRFTISRDNAKYTVYLQMNSLKPEDTAVYYCAAKTAFYRERGYWGQGTQVTVSS,low polyreactivity
9,QVQLVESGGGLVQAGGSLRLSCAASGRTFPFYAMGWYRQAPGKERELVADITSSGGSTYYADSVKGRFTISRDNAKNTVYLQINSLKPEDTAVYYCNKRPWTRFDSGQGTQVTVSS,low polyreactivity
10,QVQLVESGGGLVQAGGSLRLSCAASGRTFPFYAMGWYRQAPGKERELVAVITWRGSNTYADSVKGRFTISRDNAKNTVYLQMNSLKPEDTAVYYCSATGGRYIDGYYYWGQGTQVTVSS,high polyreactivity
11,QVQLVESGGGLVQAGGSLRLSCAASGRTFPGNAMGWYRQAPGKERELVAAISRRGGTTYYADSVKGRFTITRDNAKNTVYLQMNSLKPEDTAVYYCAKSYRDYGISDFDYWGQGTQVTVSS,high polyreactivity
12,QVQLVESGGGLVQAGGSLRLSCAASGRTFPGNSMGWYRQAPGKERELVAAISWSGTRTYYADSVKGRFTISRDNAKNTVYLQMNSLKPEDTAVYYCNVVVKGAWDYYPYDYCGQGTQVTVSS,high polyreactivity
13,QVQLVESGGGLVQAGGSLRLSCAASGRTFPGYAMGWYRQAPGKERELVAAISNSGGRTYYADSVKGRFTISRDNAKNTVYLQMNSLKPEDTAVYYCNALGRVRYSPRYGYDYWGQGTQVTVSS,high polyreactivity
14,QVQLVESGGGLVQAGGSLRLSCAASGRTFPGYAMGWYRQAPGKERELVAAITSSGSSTYYADSVKGRFTISRDNAKNTVYLQMNSLKPEDTAVYYCAAKTSGDYDYWGQGSQVTVSS,low polyreactivity
15,QVQLVESGGGLVQAGGSLRLSCAASGRTFPGYAMGWYRQAPGKERELVAGISYRGGSTYYADSVKGRFTISRDNAKNTVYLQMNSLKPEDTAVYYCARDYSRHKGDYWGQGTQVTVSS,low polyreactivity
16,QVQLVESGGGLVQAGGSLRLSCAASGRTFPGYAMGWYRQAPGKERELVAGISYRGGSTYYADSVKGRFTISRDNAKNTVYLQMNSLKPEDTAVYYCNATYGGPYYIQYDYWGQGTQVTVSS,low polyreactivity
17,QVQLVESGGGLVQAGGSLRLSCAASGRTFPGYAMGWYRQAPGKERELVATITFSDGSTYYADSVKGRFTISRDNAKNSVYLQMNSLKPEDTAVYYCNARRSYFLRYGVNYWGQGTQVTVSS,low polyreactivity
18,QVQLVESGGGLVQAGGSLRLSCAASGRTFPGYAMGWYRQATGKERELVAGISYRGGSTYYADSVKGRITISRDTAKNTVYFQINSLKPVDTAVYYCARDYSRHKGDYWGQGTQVTVSS,low polyreactivity
19,QVQLVESGGGLVQAGGSLRLSCAASGRTFPHYAMGWYRQAPGKVRELVAAISSRGGSTYYADSVKGRFTISRDNVKNTVYLQMNSLKPEDTAVYYCAATVGLYRSREYGYWGQGTQVTVSS,low polyreactivity
20,QVQLVESGGGLVQAGGSLRLSCAASGRTFPNYAMGWYRQAPGKERELVAAITRGVRTHYADSVKGRFTISRDNAKNTVYLQLNSLKQEDTAVYYCARSYRSDGSRFGYWGQGTQVTVSS,low polyreactivity
21,QVQLVESGGGLVQAGGSLRLSCAASGRTFPPYAMGWYRQAPRKESELVAAISGSGASTYYADSVKGRFTISRDNAKNTVYLQMNSLKPEDTAVYYCAARRGSGKFGKYRGVDYWGQGTQVTVSS,high polyreactivity

# Reference: the nanobody polyreactivity screen of Harvey et al. (2022)
